Laboratory results as given in patent publication US20030129724A1 (Harvard, published 2003).

B3: Recombinant FLAG-epitope tagged HDAC6 (enzyme, not shown: small tags and cut ends)
chain: MTSTGQDSTTTRQRRSRQNPQSPPQDSSVTSKRNIKKGAVPRSIPNLAEVKKKGKMKKLGQAMEEDLIVGLQGMDLNLEAEALAGTGLVLDEQLNEFHCLWDDSFPEGPERLHAIKEQLIQEGLLDRCVSFQARFAEKEELMLVHSLEYIDLMETTQYMNEGELRVLADTYDSVYLHPNSYSCACLASGSVLRLVDAVLGAEIRNGMAIIRPPGHHAQHSLMDGYCMFNHVAVAARYAQQKHRIRRVLIVDWDVHHGQGTQFTFDQDPSVLYFSIHRYEQGRFWPHLKASNWSTTGFGQGQGYTINVPWNQVGMRDADYIAAFLHVLLPVALEFQPQLVLVAAGFDALQGDPKGEMAATPAGFAQLTHLLMGLAGGKLILSLEGGYNLRALAEGVSASLHTLLGDPCPMLESPGAPCRSAQASVSCALEALEPFWEVLVRSTETVERDNMEEDNVEESEEEGPWEPPVLPILTWPVLQSRTGLVYDQNMMNHCNLWDSHHPEVPQRILRIMCRLEELGLAGRCLTLTPRPATEAELLTCHSAEYVGHLRATEKMKTRELHRESSNFDSIYICPSTFACAQLATGAACRLVEAVLSGEVLNGAAVVRPPGHHAEQDAACGFCFFNSVAVAARHAQTISGHALRILIVDWDVHHGNGTQHMFEDDPSVLYVSLHRYDHGTFFPMGDEGASSQIGRAAGTGFTVNVAWNGPRMGDADYLAAWHRLVLPIAYEFNPELVLVSAGFDAARGDPLGGCQVSPEGYAHLTHLLMGLASGRIILILEGGYNLTSISESMAACTRSLLGDPPPLLTLPRPPLSGALASITETIQVHRRYWRSLRVMKVEDREGPSSSKLVTKKAPQPAKPRLAERMTTREKKVLEAGMGKVTSASFGEESTPGQTNSETAVVALTQDQPSEAATGGATLAQTISEAAIGGAMLGQTTSEEAVGGATPDQTTSEETVGGAILDQTTSEDAVGGATLGQTTSEEAVGGATLAQTISEAAMEGATLDQTTSEEAPGGTELIQTPLASSTDHQTPPTSPVQGTTPQISPSTLIGSLRTLELGSESQGASESQAPGEENLLGEAAGGQDMADSMLMQGSRGLTDQAIFYAVTPLPWCPHLVAVCPIPAAGLDVTQPCGDCGTIQENWVCLSCYQVYCGRYINGHMLQHHGNSGHPLVLSYIDLSAWCYYCQAYVHHQALLDVKNIAHQNKFGEDMPHPH
notes: Full length ORF with C-terminal FLAG tag in pBJ5, expressed in TAg Jurkat cells; also called HDAC6-FLAG; HD6

Columns and labels:
HDAC4-EGFP (human) = HDAC4-EGFP (human) (UniProt P56524); assay: cell-based or functional assay
[1] = molecular target: B3; assay: anti-FLAG co-immunoprecipitation from TAg Jurkat cells, Western blot
[2] = molecular target: T1, calyculin A-treated (hyperphosphorylated) HDAC4 (human, UniProt P56524 1-1084, hyperphosphorylated after calyculin A treatment of the cells; sites not determined); assay: immunopurified HDAC4-FLAG from calyculin A-treated cells incubated 1 hour with untreated TAg Jurkat lysate, Western blot
T1 construct: HDAC4-FLAG immunopurified from TAg Jurkat cells treated 1.5 hours with 20 nM calyculin A; also called HDAC4-FLAG from calyculin A-treated cells
Procedure: These samples were analyzed for 14-3-3 and HDAC3 binding by Western blot analysis.

CHD4 = molecular target: T2, CHD4 (UniProt Q14839 1-1912, limits assumed); assay: anti-FLAG co-immunoprecipitation from TAg Jurkat cells, Western blot
T2 construct: Endogenous protein detected by Western blot in immunoprecipitates; also called CHD chromodomain protein
T2 sequence (Q14839 whole entry): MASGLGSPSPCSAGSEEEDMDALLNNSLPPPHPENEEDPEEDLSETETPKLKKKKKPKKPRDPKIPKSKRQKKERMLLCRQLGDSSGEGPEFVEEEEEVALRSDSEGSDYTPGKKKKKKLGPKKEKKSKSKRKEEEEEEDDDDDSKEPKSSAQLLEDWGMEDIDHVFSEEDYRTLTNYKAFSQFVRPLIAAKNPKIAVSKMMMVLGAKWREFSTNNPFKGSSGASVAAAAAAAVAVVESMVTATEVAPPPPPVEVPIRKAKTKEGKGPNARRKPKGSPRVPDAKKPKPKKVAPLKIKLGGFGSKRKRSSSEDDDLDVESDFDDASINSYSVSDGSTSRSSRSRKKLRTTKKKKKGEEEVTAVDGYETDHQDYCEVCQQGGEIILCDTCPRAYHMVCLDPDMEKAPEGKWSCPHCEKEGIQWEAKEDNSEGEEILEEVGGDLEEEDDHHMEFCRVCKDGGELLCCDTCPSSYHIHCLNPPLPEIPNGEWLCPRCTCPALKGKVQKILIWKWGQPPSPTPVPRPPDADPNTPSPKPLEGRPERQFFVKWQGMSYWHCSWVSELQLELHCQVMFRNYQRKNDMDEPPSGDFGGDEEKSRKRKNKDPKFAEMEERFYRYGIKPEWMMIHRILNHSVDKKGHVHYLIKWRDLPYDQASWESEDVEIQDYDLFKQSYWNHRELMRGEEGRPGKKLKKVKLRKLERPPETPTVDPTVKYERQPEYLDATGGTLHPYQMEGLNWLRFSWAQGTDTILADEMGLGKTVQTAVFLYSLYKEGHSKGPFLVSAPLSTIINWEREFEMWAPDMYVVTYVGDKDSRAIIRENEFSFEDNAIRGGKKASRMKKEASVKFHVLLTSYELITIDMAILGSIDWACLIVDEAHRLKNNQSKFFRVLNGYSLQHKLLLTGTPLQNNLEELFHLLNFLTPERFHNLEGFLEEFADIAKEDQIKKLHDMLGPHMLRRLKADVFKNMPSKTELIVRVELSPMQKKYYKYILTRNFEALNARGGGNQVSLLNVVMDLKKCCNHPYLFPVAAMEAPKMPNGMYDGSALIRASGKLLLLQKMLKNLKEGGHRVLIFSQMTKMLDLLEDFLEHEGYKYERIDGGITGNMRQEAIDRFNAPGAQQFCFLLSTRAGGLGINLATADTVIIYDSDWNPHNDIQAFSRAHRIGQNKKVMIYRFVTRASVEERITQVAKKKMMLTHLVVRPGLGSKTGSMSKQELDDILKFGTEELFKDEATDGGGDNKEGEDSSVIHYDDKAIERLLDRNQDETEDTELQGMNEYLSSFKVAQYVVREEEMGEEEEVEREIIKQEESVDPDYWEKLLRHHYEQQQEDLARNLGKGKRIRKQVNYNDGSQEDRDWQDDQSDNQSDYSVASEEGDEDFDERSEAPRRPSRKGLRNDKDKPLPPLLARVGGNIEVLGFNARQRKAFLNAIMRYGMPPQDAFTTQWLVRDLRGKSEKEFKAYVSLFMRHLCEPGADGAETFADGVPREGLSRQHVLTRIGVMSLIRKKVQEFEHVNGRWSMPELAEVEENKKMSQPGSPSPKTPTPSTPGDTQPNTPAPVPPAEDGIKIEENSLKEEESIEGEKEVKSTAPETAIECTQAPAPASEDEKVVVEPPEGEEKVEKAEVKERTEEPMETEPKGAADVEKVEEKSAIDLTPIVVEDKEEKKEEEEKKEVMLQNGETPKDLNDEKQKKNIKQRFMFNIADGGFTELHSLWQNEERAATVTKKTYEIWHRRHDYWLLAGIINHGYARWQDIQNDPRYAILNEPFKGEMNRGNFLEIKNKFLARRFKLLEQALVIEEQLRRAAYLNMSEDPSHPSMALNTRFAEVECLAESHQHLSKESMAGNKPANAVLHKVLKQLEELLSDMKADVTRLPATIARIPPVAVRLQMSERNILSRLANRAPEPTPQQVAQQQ

mSin3A = molecular target: T3, mSin3A (UniProt Q96ST3 1-1273); assay: as above
T3 construct: Endogenous protein detected by Western blot in immunoprecipitates; also called co-repressor mSin3A
T3 sequence (looked up): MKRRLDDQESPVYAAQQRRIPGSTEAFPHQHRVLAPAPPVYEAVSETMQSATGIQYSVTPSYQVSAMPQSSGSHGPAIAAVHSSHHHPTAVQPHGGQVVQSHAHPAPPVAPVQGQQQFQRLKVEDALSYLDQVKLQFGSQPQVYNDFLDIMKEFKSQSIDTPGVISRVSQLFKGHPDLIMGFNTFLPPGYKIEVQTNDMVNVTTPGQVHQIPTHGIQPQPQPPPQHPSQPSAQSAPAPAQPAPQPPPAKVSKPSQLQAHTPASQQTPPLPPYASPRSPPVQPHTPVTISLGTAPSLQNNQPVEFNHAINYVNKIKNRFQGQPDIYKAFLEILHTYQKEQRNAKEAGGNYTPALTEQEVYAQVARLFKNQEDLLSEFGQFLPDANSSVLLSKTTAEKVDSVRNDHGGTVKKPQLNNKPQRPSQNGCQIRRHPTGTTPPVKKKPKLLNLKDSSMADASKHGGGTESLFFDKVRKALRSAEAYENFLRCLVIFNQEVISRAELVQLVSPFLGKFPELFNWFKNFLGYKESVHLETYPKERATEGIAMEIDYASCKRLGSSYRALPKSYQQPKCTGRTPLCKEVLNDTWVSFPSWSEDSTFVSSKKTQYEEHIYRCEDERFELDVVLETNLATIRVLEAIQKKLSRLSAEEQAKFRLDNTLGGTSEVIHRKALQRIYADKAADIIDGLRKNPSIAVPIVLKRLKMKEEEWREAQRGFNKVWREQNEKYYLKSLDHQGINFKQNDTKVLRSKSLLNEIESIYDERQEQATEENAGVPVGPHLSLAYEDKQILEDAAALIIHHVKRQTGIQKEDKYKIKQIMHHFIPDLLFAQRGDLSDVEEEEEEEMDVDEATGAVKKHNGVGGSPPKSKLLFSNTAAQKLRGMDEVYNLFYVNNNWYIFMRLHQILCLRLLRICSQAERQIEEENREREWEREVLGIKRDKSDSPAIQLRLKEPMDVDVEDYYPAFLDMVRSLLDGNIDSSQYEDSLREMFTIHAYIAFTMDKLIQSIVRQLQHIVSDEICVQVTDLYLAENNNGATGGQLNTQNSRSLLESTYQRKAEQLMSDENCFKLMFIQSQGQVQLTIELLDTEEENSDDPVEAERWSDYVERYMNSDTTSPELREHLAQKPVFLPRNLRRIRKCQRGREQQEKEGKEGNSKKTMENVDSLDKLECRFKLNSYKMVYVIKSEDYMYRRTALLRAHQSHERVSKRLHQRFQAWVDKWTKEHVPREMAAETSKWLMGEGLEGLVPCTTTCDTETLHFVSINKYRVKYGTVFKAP

Sequence of 14-3-3 ε, P62258 (P62258 whole entry, looked up): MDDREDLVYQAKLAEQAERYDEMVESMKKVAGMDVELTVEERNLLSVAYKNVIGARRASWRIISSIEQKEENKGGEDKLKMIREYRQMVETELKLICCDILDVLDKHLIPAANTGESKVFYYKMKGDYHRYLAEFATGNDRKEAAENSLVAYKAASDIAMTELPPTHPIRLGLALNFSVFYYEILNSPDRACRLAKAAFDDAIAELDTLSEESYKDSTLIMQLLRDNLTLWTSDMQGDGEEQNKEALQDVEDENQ
Sequence of 14-3-3 β, P31946 (P31946 whole entry, looked up): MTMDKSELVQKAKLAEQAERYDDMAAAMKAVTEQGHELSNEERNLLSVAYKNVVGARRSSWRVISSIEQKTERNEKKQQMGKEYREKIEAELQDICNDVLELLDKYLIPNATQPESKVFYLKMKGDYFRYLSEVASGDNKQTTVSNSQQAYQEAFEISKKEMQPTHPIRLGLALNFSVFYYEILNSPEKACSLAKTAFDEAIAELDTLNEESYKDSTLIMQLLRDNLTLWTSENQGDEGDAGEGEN

myc-tagged 14-3-3 β (from UniProt P31946 1-246)
cytoplasmic localization of HDAC4 (percent of U2OS cells), HDAC4-EGFP with simultaneous overexpression of 14-3-3 (% of the cells) (HDAC4-EGFP (human)): 97
cytoplasmic localization of HDAC4 (percent of U2OS cells), control: HDAC4-EGFP alone without overexpressed 14-3-3 (% of the cells) (HDAC4-EGFP (human)): 67

B1: HDAC4 S246/466/632A triple mutant (protein)
chain: MSSQSHPDGLSGRDQPVELLNPARVNHMPSTVDVATALPLQVAPSAVPMDLRLDHQFSLPVAEPALREQQLQQELLALKQKQQIQRQILIAEFQRQHEQLSRQHEAQLHEHIKQQQEMLAMKHQQELLEHQRKLERHRQEQELEKQHREQKLQQLKNKEKGKESAVASTEVKMKLQEFVLNKKKALAHRNLNHCISSDPRYWYGKTQHSSLDQSSPPQSGVSTSYNHPVLGMYDAKDDFPLRKTAAEPNLKLRSRLKQKVAERRSSPLLRRKDGPVVTALKKRPLDVTDSACSSAPGSGPSSPNNSSGSVSAENGIAPAVPSIPAETSLAHRLVAREGSAAPLPLYTSPSLPNITLGLPATGPSAGTAGQQDTERLTLPALQQRLSLFPGTHLTPYLSTSPLERDGGAAHSPLLQHMVLLEQPPAQAPLVTGLGALPLHAQSLVGADRVSPSIHKLRQHRPLGRTQAAPLPQNAQALQHLVIQQQHQQFLEKHKQQFQQQQLQMNKIIPKPSEPARQPESHPEETEEELREHQALLDEPYLDRLPGQKEAHAQAGVQVKQEPIESDEEEAEPPREVEPGQRQPSEQELLFRQQALLLEQQRIHQLRNYQASMEAAGIPVSFGGHRPLSRAQASPASATFPVSVQEPPTKPRFTTGLVYDTLMLKHQCTCGSSSSHPEHAGRIQSIWSRLQETGLRGKCECIRGRKATLEELQTVHSEAHTLLYGTNPLNRQKLDSKKLLGSLASVFVRLPCGGVGVDSDTIWNEVHSAGAARLAVGCVVELVFKVATGELKNGFAVVRPPGHHAEESTPMGFCYFNSVAVAAKLLQQRLSVSKILIVDWDVHHGNGTQQAFYSDPSVLYMSLHRYDDGNFFPGSGAPDEVGTGPGVGFNVNMAFTGGLDPPMGDAEYLAAFRTVVMPIASEFAPDVVLVSSGFDAVEGHPTPLGGYNLSARCFGYLTKQLMGLAGGRIVLALEGGHDLTAICDASEACVSALLGNELDPLPEKVLQQRPNANAVRSMEKVMEIHSKYWRCLQRTTSTAGRSLIEAQTCENEEAETVTAMASLSVGVKPAEKRPDEEPMEEEPPL
localization to the cytoplasm (14-3-3 β, P31946): localization of the triple mutant to the cytoplasm is dramatically decreased compared to the wild-type and single mutants
localization to the cytoplasm (14-3-3 ε, P62258): localization of the triple mutant to the cytoplasm is dramatically decreased compared to the wild-type and single mutants

B2: HDAC3 (enzyme, human, UniProt O15379 1-428, looked up)
chain: MAKTVAYFYDPDVGNFHYGAGHPMKPHRLALTHSLVLHYGLYKKMIVFKPYQASQHDMCRFHSEDYIDFLQRVSPTNMQGFTKSLNAFNVGDDCPVFPGLFEFCSRYTGASLQGATQLNNKICDIAINWAGGLHHAKKFEASGFCYVNDIVIGILELLKYHPRVLYIDIDIHHGDGVQEAFYLTDRVMTVSFHKYGNYFFPGTGDMYEVGAESGRYYCLNVPLRDGIDDQSYKHLFQPVINQVVDFYQPTCIVLQCGADSLGCDRLGCFNLSIRGHGECVEYVKSFNIPLLVLGGGGYTVRNVARCWTYETSLLVEEAISEELPYSEYFEYFAPDFTLHPDVSTRIENQNSRQYLDQIRQTIFENLKMLNHAPSVQIHDVPADLLTYDRTDEADAEERGPEENYSRPEAPNEFYDGDHDNDKESDVEI
notes: Endogenous protein co-immunoprecipitated from cell lysate; also used here for HDAC3 of staurosporine-treated cells; also called HDAC3 from untreated cells
binding result [1]: no binding
binding result [2]: binds

B3
binding result (CHD4): no binding
binding result (mSin3A): no binding
